In PMC8501954 one finds binding signal data, which are given here for one substance.

The series concerns the target tRip1-402 (Plasmodium falciparum) (UniProt Q8IL48). Kind of series: competition EMSA. The conditions noted are these: unmodified transcript; scale: fold difference from Sc tRNAPheGAA.

For the substance minihelixPhe, the binding signal was under 2.
